Reference: US20260234242A1 (HAINAN SIMCERE ZAIMING PHARMACEUTICAL, published 2026)
Substitutions are numbered along the chain they refer to. Each block holds one binder with its values, some of them ahead of it.

Key:
[1] = molecular target: T1, human CDH6 on tumor cells (OVCAR3 cells, PA-1 cells) (human, UniProt P55285 54-790); test: FACS, OVCAR3 cells, 4° C. arm of endocytosis assay, antibody diluted to 10 µg/mL
T1 sequence: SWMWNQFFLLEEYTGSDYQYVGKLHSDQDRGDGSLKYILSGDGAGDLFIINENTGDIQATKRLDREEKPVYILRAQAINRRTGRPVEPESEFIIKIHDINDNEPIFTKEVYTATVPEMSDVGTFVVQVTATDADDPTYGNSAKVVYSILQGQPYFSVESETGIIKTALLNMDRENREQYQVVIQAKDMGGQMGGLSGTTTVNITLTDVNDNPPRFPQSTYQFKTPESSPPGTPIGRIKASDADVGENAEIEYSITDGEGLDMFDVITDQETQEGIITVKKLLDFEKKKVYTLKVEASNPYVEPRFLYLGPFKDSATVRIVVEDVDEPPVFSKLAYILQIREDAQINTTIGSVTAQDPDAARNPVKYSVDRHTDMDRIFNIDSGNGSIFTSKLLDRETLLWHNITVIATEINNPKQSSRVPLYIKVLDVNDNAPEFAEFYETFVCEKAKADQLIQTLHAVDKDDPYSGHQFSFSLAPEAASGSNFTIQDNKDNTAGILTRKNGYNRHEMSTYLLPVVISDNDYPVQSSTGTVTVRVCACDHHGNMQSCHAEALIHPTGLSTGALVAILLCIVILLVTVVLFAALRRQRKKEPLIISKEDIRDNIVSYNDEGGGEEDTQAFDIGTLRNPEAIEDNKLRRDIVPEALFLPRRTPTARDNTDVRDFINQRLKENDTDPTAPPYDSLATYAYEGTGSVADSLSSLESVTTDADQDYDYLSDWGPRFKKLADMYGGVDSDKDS
Procedure: OVCAR3 cells were cultured until a confluence of 90% was reached, the medium was removed by pipetting, the cells were washed once with PBS, and then treated with an enzyme-free cell dissociation solution (Versene, purchased from Gibco, Cat. No. 15040-066) and the cells were collected. The cells were washed once with PBS, counted, resuspended to 2×10⁶ cells/mL in an FACS buffer (PBS+2% FBS), and then added to two 96-well plates at 50 μL/well. The chimeric antibodies were diluted with FACS buffer (PBS+2% FBS) to 10 μg/mL and separately added to the two 96-well plates at 50 μL/well, and the plates were incubated at 4° C. for 1 h. After the cells were washed 3 times with PBS, the cells were resuspended in an FACS buffer. One 96-well plate was incubated at 4° C. for 1 h, and the other 96-well plate was incubated at 37° C. for 1 h. […] After the plates were centrifuged and washed 2 times with PBS, the cells were resuspended in an FACS buffer. The mean fluorescence intensity (MFI) was measured using FACS Canton II (BD). The chimeric antibodies tested all had good endocytic activity.

[2] = molecular target: T2, his-tagged human CDH6 extracellular region protein (hCDH6 ECD-his) (human, UniProt P55285 19-615); test: ELISA, coated antigen; ELISA, hCDH6 ECD-his coated at 1 µg/mL, antibody in solution
T2 construct: also called Human CDH6-his; hCDH6-his; not shown: his tag
T2 sequence: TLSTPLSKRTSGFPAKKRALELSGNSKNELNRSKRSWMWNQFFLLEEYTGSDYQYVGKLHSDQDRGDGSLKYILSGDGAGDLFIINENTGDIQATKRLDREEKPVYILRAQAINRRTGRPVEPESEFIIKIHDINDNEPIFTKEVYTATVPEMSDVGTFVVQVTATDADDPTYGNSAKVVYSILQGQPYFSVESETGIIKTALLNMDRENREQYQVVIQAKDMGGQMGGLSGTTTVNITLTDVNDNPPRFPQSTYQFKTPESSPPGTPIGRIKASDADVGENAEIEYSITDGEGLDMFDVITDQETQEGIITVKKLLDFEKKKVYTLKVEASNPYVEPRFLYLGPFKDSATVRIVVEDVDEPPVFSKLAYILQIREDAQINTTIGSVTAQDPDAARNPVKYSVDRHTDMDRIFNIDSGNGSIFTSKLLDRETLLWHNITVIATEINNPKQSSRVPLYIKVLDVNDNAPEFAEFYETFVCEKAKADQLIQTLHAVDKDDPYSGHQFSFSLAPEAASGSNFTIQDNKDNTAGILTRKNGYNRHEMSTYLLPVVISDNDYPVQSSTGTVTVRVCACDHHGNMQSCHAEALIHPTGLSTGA
Procedure: Human CDH6 protein (hCDH6 ECD-his, conventionally synthesized), monkey CDH6 protein (cynoCDH6 ECD-his, conventionally synthesized; the cynoCDH6 ECD sequence was derived from Uniprot #A0A2K5TW62 (19-615)), and murine CDH6 protein (mCDH6 ECD-his, conventionally synthesized; the mCDH6 ECD sequence was derived from Uniprot #P97326 (19-615)) were diluted with PBS to a final concentration of 1 μg/mL, and added to a 96-well ELISA plate at 100 μL/well. The plate was incubated at 4° C. overnight. The next day, the plate was washed 3 times with a plate washing solution (PBS+0.01% (v/v) Tween 20), and a blocking buffer (PBS+0.01% (v/v) Tween 20+2% (w/w) BSA) was added for blocking at room temperature for 2 h. The blocking buffer was discarded, and the plate was washed 3 times. The chimeric antibodies were diluted with 1% BSA+PBS (purchased from Cytiva, Cat. No. SH30264.01) and added to the 96-well plate at 50 μL/well. After incubation at 37° C. for 2 h, the plate was washed 3 times with a plate washing solution. […] The plate was incubated at 37° C. for 1 h and then washed 5 times with a plate washing solution. A TMB substrate (purchased from Seracare, Cat. No. 5120-0077) was added at 50 μL/well and incubated at room temperature for 10 min, then a stop solution (1.0 N HCl) was added at 50 μL/well. OD450 nm values were read using a microplate reader (Biotek). Analysis was performed by the GraphPad Prism software, data were fitted, and EC50 values were calculated. The chimeric antibodies tested all had strong binding to the human CDH6 protein, the monkey CDH6 protein, and the murine CDH6 protein.

B2: CHI-CDH6-13 (antibody, human IgG1, kappa, V domains shown)
VH: DVQLQESGPGLVKPSQSLSLTCSVTGYSITKDSYWNWIRQFPGSKLEWMGFISYDGSRHYNPSLKNRISITRDTSKNQFFLQLNSVTTEDTATYYCARRDYADYWGQGTTLTVSS
VL: QIVLTQSPALMSAFPGEKVTMTCSATSSVSYIYWYQQKPRSSPKPWIYLTSNLASGVPARFSGSGSGTSYSLTINSLEAEDAATYYCQQWSSIPYTFGGGTKLEIKR
notes: also called chimeric antibody of murine CDH6-13
MFI_4° C. [1]: 5970 MFI

B5: CHI-CDH6-6 (antibody, human IgG1, kappa, V domains shown)
VH: EVQLQQSGPELVKPGDSVKMSCKASGYTFTDYYMAWVRQSHRKSLEWIGYIFPNSGGTDYSQKFKGKATLTVDKSSSTVYMELHSLTSEDSAVYYCARELGADYGDYYAMDHWGQGTSVSVSS
VL: DIQMTQSPASLSASVGETVTITCRASENIDSYLAWYQQKQGKSPQLLVYSATLLADGVPSRFSGSGSGTQYSLKINSLKSEDVARYYCQHYYRTPPTFGSGTKLEIKR
notes: also called CHI-hCDH6-6; chimeric antibody of murine CDH6-6
MFI_4° C. [1]: 9930 MFI

B6: CHI-CDH6-8 (antibody, human IgG1, kappa, V domains shown)
VH: EVQLQQSGPELVKPGDSVKMSCKASGYTFTDYYMAWIKQNHGKSLEWIGYIYPNNGGTDYNQKFRGKATLTVDKSSSAAYMELHSLTSEDSAVYYCAREIGTLYGDYYAMDYWGQGTSVTVSS
VL: B5 VL with S50T, K79Q, R93S
notes: also called chimeric antibody of murine CDH6-8
MFI_4° C. [1]: 10100 MFI

B7: CHI-CDH6-4 (antibody, human IgG1, kappa, V domains shown)
VH: QVQLQQSGPELVKPGASVKISCKASGYAFSNFWMNWVKQRPGKGLEWIGWIYPGDGDTNYNGKFKDKATLTADKSSSTAYIQLSSLTSEDSAVYFCARLYDAWGFFDYWGQGTTLTVSS
VL: QIVLTQSPAIMSASPGQKVTITCSASSSVNYMHWYQQKLGSSPKLWIYDKSKLAPGVPARFSGSGSGTSYSLTISSMEAEDAASYFCHQWSSYPPMTFGGGTKLEIKR
notes: also called CH1-CDH6-4; chimeric antibody of murine CDH6-4
MFI_4° C. [1]: 9520 MFI | EC50 [2]: 0.053 nM

B8: CHI-CDH6-1 (antibody, human IgG1, kappa, V domains shown)
VH: QVQLQQPGAELVRPGSSVKLSCKASGYTFTNYWMHWVKQRPIEGLEWIGDIDPSHSETHYTQKFKDKATLTVDKSSSTAYMQLSSLTSEDSAVYYCARGDLGRFDYWGQGTTLTVSS
VL: DIVLTQSPASLAVSLGQRATISCRASESVSIHGTHLMHWYQQKSGQPPKLLIYAASNLESGVPARFSGSGSETDFTFNIHPVEEEDAATYFCQQSFEDPWTFGGGTKLEIKR
notes: also called CHI-hCDH6-1; CH1-CDH6-1
MFI_4° C. [1]: 10600 MFI

B12: CHI-CDH6-5 (antibody, human IgG1, kappa, V domains shown)
VH: QVQLQQSGAELVRPGTSVKMSCKAAEYTFTNYWIGWVKQRPGHGLEWIGDLYPGGDHANYNEKFEGKATLTADTSSSTAYMQLSSLTSEDSAIYYCARGMLTTGFDSWGQGTTLTVSS
VL: DIVMSQSPSSLAVSAGEKVTMSCKSSQSLFNSRTRKNYLAWYQQKPGQSPKLLIYWASTRESGVPDRFTGSGSGTDFTLTISSVQAEDLAVYYCKQSYYLRTFGGGTKLEIKR
notes: also called CH1-CDH6-5; chimeric antibody of murine CDH6-5
MFI_4° C. [1]: 8810 MFI | EC50 [2]: 0.043 nM

The remaining lines, values ahead:

MFI_4° C. [1]: 11100 MFI
B1: CHI-CDH6-2 (antibody, human IgG1, kappa, V domains shown)
VH: EVQLQQSGPELVKPGASVRISCKASGYTFTDYYMNWVKQSHGKSLEWIGDIDPNNANTTYNQKFKGKATLTVDKSSSTAYMELRSLTSEDSAVYSCASFGYDVEWFGYWGQGTLVTVSA
VL: B2 VL with F14S, T26S, I32M, N75S, L77M, I93N, Y95F, G99S
notes: also called chimeric antibody of murine CDH6-2

MFI_4° C. [1]: 6520 MFI
B3: NOV0712 (antibody, human IgG1, kappa, V domains shown)
VH: QVQLLESGGGLVQPGGSLRLSCAASGFTFSSHGMHWVRQAPGKGLEWVSVISGSGSNTGYADSVKGRFTISRDNSKNTLYLQMNSLRAEDTAVYYCARQWGSYAFDSWGQGTLVTVSS
VL: DIQMTQSPSSLSASVGDRVTITCRASQSISSYLNWYQQKPGKAPKLLIYAVSTLQSGVPSRFSGSGSGTDFTLTISSLQPEDFATYYCQQSGTFPPTTFGQGTKVEIKR
notes: Positive control, variable regions from WO2018212136A1; also called positive control anti-human CDH6 antibody

MFI_4° C. [1]: 11000 MFI
B4: CHI-CDH6-9 (antibody, human IgG1, kappa, V domains shown)
VH: QVQLQQPGAELVKPGASVKLSCKASGYTFTGYWMHWVRQRPGQGLEWIGEINPNNGGTNCNEQFKNKATLTVDKSSSTAYMQLSSLTSEDSAVFYCTISFGNYLFFDVWGAGTTVTVSS
VL: DIQMTQSPASLAASVGETITITCQASENIYFSLAWYQQKQGKSPQLLIYNANTLEDGVPSRFVGSGSGTQYSMKINSIQPEDTATYFCDQTYDFPWTFGGGTKLEIKR
notes: also called chimeric antibody of murine CDH6-9

MFI_4° C. [1]: 10100 MFI
B9: CHI-CDH6-10 (antibody, human IgG1, kappa, V domains shown)
VH: QVQLQQPGAELVKPGTSVKMSCKASGYTFTSDWIAWVKQRPGQGLEWIGDIYPGSGRTHNNEKFNFKATLTVDTSSNTAYMQLSSLTSEDSAVYFCARPMLGRFDYWGQGTTLTVSS
VL: B8 VL with S44P, F77L, W100F, G104S
notes: also called chimeric antibody of murine CDH6-10

MFI_4° C. [1]: 10400 MFI
B10: CHI-CDH6-11 (antibody, human IgG1, kappa, V domains shown)
VH: QIQLQQSGPELVKPGASVRISCKASGYTFTDYYITWVKLRPGQGLEWIGWIYPGSVNIKYNEKFKGKATLTVDTSSSTAYMQLNSLTSEDSAVYFCARGGYSWFPYWGQGTLVTVSA
VL: NIVMTQSPKSMSMSVGERVTLSCKASENVHTYVSWYQQKPEQSPKLLFYGASTRNTGVPDRFTGSGSATDFTLTISSVQAEDLADYYCGQSYSYPYTFGSGTKLEIKR
notes: also called chimeric antibody of murine CDH6-11

MFI_4° C. [1]: 9230 MFI
B11: CHI-CDH6-14 (antibody, human IgG1, kappa, V domains shown)
VH: QIQLQQSGPELVKPGTSVKISCKASGYTFTDNYINWVRQRPGQGLEWIGWIYPGTGNSYYNEKFKGKATLTVDTSSSTAYMQFSSLTSEDSAVYLCASSYGDSFDYWGQGTTLTVSS
VL: DIQMTQTTSSLSASLGNRVTISCRASQDIRNYLNWYQQKPDGTFKLLISYTSRLHSGVPSRFSGSGSGTDYSLTVSNLEPEDIATYYCQQYSQLPWTFGGGSRLEIKR
notes: also called CHI-hCDH6-14; CH1-CDH6-14

MFI_4° C. [1]: 9280 MFI | EC50 [2]: 0.03 nM
B13: CHI-CDH6-3 (antibody, human IgG1, kappa, V domains shown)
VH: QVQLQQPGAELVKPGASVKLSCKASGYTFTSYWIHWVKQRPGQGLEWIGEINPSNGVTNCNENFKSKATLTVDKSSSTAYMQLSSLTSEDSAVYYCTIPNLLWWYFDVWGAGTTVTVSS
VL: DIQMTQSPASLSVSVGETVTITCRASENIYSNLAWYQQKQGKSPQLLVYEATNLADGVPSRFSGSGSGTQYSLKINSLQSEDFGSYYCQHFWGTLWTFGGGTKLEIKR
notes: also called CH1-CDH6-3; chimeric antibody of murine CDH6-3
